Drawing on article PMC7380208, this text covers stoichiometry N for one substance.

The target in the test is Flt3 Receptor Interacting Lectin (FRIL) from Lablab purpureus (Lablab purpureus) (UniProt Q9ZTA9). The test can be described thus: SEC-MALS.

For the substance “Flt3 Receptor Interacting Lectin (FRIL) from Lablab purpureus (from UniProt Q9ZTA9) (natural protein)”, the stoichiometry N amounted to 4.

What is called stoichiometry N is the number of molecules, sites or subunits per partner or assembly.
